According to US20220041721A1 (WUHAN YZY BIOPHARMA, published 2022):

Assays:
[1] = target: T1, human CD3 (human, UniProt P07766 23-207); assay: cell-based or functional assay
[2] = target: T1, human CD3; assay: flow cytometry on human CD3 positive T cells
[3] = target: T2, monkey CD3 (monkey); assay: flow cytometry on monkey CD3 positive T cells
T2 construct: whole, on cells; also called CD3 on monkey CD3 positive T cells

[4] = target: T3, Human CD38 (human, UniProt P28907 1-300); assay: flow cytometry on CD38 positive tumor cells (MM.1S or RPMI 8226)
T3 construct: whole, on cells; the assays used the protein on tumor cells

[5] = target: T1, human CD3; assay: cell-based or functional assay; remark: listed apart in the source

Row | Binder | EC50 values of T-cell activation (CD3 and CD69 dual positive cells; human PBMC with MC/CAR target cells 5:1, 48 h) [1] [nM] | EC50 [2] [nM] | EC50 [3] [nM] | EC50 [4] [nM] | Cytotoxicity EC50 against lung cancer cells H358 (human PBMC 10:1, 48 h); control with CD3 arm only, no tumor antigen arm [5] [µg/mL]
1 | Y150-F9-11 (bispecific antibody, human IgG1, kappa, Anti-CD38 (MOR) Fab arm with CL Lc1 and anti-CD3 scFv (VH2a/VL5)-Fc fusion peptide) scFv: QVQLVESGGGVVQPGRSLRLSCAASGFTFSTYAMNWVRQAPGKGLEWVARIRSKYNNYATYYADSVKDRFTISRDDSKNTLYLQMNSLRAEDTAVYYCARHGNFGNSYVSWFAYWGQGTLVTVSSGGGGSGGGGSGGGGSQTVVTQEPSLTVSPGGTVTLTCRSSTGAVTTSNYANWVQQKPGQAPRGLIGGTNKRAPGVPARFSGSLLGGKAALTLSGVQPEDEAEYYCALWYSNLWVFGGGTKVEIKGRGRGSDKTHTCPPSPAPPVAGPSVFLFPPKPKDTLMISRTPEVTCVVVDVSHEDPEVQFNWYVDGVEVHNAKTKPREEQFNSTFRVVSVLTVVHQDWLNGKEYKCKVSNKGLPAPIEKTISKTKGQPREPQVCTLPPSRDELTKNQVSLSCAVKGFYPSDIAVEWESNGQPENNYKTTPPVLDSDGSFFLVSKLTVDKSRWQQGNVFSCSVMHEALHNHYTQKSLSLSPGK heavy: not shown light: DIELTQPPSVSVAPGQTARISCSGDNLRHYYVYWYQQKPGQAPVLVIYGDSKRPSGIPERFSGSNSGNTATLTISGTQAEDEADYYCQTYTGGASLVFGGGTKLTVLRTVAAPSVFIFPPSDEQLKSGTASVVCLLNNFYPREAKVQWKVDNALQSGNSQESVTEQDSKDSTYSLSSTLTLSKADYEKHKVYACEVTHQGLSSPVTKSFNRGEC | 0.0835 | 437 | 461 | 106 | 
2 | MS-hCD3-IC15 (bispecific antibody, human IgG1, kappa, N297Q) scFv: not shown heavy: EVKLDETGGGLVQPGRPMKLSCVASGFTFSDYWMNWVRQSPEKGLEWVAQIRNKPYNYETYYSDSVKGRFTISRDDSKSSVYLQMNNLRVEDMGIYYCTGSYYGMDYWGQGTSVTVSSASTKGPSVFPLAPSSKSTSGGTAALGCLVKDYFPEPVTVSWNSGALTSGVHTFPAVLQSSGLYSLSSVVTVPSSSLGTQTYICNVNHKPSNTKVDKKVEPKSCDKTHTCPPCPAPELLGGPSVFLFPPKPKDTLMISRTPEVTCVVVDVSHEDPEVKFNWYVDGVEVHNAKTKPREEQYQSTYRVVSVLTVLHQDWLNGKEYKCKVSNKALPAPIEKTISKAKGQPREPQVYTLPPCRDELTKNQVSLWCLVKGFYPSDIAVEWESNGQPENNYKTTPPVLDSDGSFFLYSKLTVDKSRWQQGNVFSCSVMHEALHNHYTQKSLSLSPGK light: DVVMTQTPLSLPVSLGDQASISCRSSQSLVHSNGNTYLRWYLQKPGQSPKVLIYKVSNRFSGVPDRFSGSGSGTDFTLKISRVEAEDLGVYFCSQSTHVPWTFGGGTKLEIKRTVAAPSVFIFPPSDEQLKSGTASVVCLLNNFYPREAKVQWKVDNALQSGNSQESVTEQDSKDSTYSLSSTLTLSKADYEKHKVYACEVTHQGLSSPVTKSFNRGEC |  | 194 | 378 |  | 0.172
